From patent US20250297004A1, “NECTIN-4 BINDING AGENTS” (INNATE PHARMA, priority 2022, published 2025)

T1: rat Nectin-4 protein expressed on CHO cells (rat, UniProt Q8R007 31-508 (mouse entry))
T1 construct: no cleavage site is stated; also called Rat Nectin-4 V5
T1 chain: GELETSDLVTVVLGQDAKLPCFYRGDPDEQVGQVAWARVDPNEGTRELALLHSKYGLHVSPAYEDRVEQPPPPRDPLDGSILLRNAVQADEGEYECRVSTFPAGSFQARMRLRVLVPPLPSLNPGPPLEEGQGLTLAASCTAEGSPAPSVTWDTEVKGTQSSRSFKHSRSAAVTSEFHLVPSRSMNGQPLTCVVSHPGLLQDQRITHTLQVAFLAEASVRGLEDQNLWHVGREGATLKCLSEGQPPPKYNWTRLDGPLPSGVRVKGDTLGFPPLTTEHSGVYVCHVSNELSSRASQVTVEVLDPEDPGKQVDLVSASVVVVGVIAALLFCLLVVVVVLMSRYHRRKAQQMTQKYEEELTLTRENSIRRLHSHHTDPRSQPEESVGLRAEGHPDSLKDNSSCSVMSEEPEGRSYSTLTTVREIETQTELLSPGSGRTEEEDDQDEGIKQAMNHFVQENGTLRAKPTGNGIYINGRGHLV

T2: cynomolgus Nectin-4 protein expressed on CHO cells (cynomolgus, UniProt Q96NY8 32-510 (human entry))
T2 construct: also called Cyno Nectin-4 V5
T2 chain: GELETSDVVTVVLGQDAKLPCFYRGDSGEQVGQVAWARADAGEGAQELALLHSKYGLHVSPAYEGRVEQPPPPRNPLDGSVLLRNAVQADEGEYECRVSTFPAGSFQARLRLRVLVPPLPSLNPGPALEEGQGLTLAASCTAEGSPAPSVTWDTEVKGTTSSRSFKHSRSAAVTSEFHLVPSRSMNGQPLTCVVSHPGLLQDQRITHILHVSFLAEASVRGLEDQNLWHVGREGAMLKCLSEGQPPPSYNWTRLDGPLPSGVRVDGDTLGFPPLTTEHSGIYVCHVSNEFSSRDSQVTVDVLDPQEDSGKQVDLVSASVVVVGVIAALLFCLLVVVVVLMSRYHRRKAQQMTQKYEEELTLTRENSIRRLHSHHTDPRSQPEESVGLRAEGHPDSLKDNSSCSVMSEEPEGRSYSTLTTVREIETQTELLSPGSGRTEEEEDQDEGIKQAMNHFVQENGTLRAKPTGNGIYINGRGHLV

T3: human Nectin-4 (Homo sapiens, UniProt Q96NY8)
T3 sequence (Q96NY8 32-510): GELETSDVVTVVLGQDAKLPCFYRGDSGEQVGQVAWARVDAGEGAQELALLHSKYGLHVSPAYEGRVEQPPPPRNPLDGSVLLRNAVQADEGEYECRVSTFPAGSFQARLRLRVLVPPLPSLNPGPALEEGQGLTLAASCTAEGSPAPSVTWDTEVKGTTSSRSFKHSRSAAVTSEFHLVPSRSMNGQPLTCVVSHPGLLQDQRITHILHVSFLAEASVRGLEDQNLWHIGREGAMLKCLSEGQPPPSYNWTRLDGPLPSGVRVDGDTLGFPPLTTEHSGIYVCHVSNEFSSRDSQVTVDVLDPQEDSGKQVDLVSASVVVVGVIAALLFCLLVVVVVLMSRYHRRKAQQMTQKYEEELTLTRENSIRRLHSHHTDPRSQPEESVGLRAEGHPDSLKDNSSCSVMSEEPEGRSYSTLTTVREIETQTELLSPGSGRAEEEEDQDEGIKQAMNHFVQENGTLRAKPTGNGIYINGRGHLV

T4: mouse Nectin-4 protein expressed on CHO cells (Mus musculus, UniProt Q8R007)
T4 construct: V5 (N); expressed in transfected cells; host or cells: CHO
T4 sequence (Q8R007 32-508): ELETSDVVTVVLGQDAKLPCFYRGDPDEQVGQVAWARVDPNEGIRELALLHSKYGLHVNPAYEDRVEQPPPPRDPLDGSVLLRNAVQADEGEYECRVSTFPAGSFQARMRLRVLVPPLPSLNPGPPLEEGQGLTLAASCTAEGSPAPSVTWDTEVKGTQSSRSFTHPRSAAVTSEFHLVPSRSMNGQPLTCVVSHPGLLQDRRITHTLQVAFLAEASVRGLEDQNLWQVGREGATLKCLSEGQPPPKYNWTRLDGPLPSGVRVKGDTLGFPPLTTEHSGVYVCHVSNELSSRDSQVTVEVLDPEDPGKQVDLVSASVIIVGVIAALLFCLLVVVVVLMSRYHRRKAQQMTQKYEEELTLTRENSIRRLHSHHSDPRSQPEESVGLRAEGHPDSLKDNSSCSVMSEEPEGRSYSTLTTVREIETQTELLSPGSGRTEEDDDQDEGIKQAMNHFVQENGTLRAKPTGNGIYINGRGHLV


Tests used:
[1] = molecular target: T1, rat Nectin-4 protein expressed on CHO …; assay: flow cytometry on CHO cells expressing rat Nectin-4, Median MFI (PE)
Method: (§1) Anti-Nectin-4 antibodies were tested by flow cytometry for binding to different CHO cell lines made to express respectively the mouse, cynomolgus and rat Nectin-4 protein (including an N-terminal V5 tag not shown in the sequences below).

[2] = molecular target: T2, cynomolgus Nectin-4 protein expressed …; assay: flow cytometry on CHO cells expressing cynomolgus Nectin-4, Median MFI (PE)
Method: as §1

human Nectin-4 = molecular target: T3, human Nectin-4; assay: Species cross-reactivity, binding to Nectin-4
Method: as §1
Antibody 5E7 bound human, cynomolgus, as well as rat Nectin 4 proteins but lack binding to the mouse Nectin 4 protein. FIGS. 6A and 6B show binding of anti-Nectin-4 antibodies on rat and cynomolgus Nectin-4-expressing CHO cell lines.

[3] = system: cynomolgus Nectin-4 protein expressed on CHO cells; assay: Species cross-reactivity by flow cytometry on CHO cell lines; format: binding; conditions: FIG. 6B
Method: as §1
(§2) The mature amino acid sequence of the proteins expressed by the cells were as follows: […]

[4] = molecular target: T4, mouse Nectin-4 protein expressed on CHO cells; assay: as above; format: binding
Method: as §1, §2

[5] = system: rat Nectin-4 protein expressed on CHO cells; assay: as above; format: binding; conditions: FIG. 6A
rat Nectin-4 protein expressed on CHO cells, sequence (as listed by the source): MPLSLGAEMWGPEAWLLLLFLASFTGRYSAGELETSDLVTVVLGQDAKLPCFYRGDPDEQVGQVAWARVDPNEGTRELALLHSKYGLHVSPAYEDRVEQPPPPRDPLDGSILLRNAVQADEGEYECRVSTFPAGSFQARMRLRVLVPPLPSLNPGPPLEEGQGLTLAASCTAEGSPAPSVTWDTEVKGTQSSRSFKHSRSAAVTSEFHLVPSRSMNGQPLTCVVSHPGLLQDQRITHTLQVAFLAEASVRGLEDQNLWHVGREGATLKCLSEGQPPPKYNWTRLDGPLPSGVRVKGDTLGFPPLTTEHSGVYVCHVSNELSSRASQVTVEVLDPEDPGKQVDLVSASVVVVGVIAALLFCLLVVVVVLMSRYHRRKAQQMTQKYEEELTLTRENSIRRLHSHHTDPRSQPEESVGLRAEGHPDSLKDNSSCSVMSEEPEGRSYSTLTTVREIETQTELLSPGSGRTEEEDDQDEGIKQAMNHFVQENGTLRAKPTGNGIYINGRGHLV
Method: as §1, §2

| Molecule | EC50 (read off the curve) [1] | EC50 (read off the curve) [2] | binding to human Nectin 4 protein (human Nectin-4) | binding to cynomolgus Nectin 4 protein [3] | binding to mouse Nectin 4 protein [4] | binding to rat Nectin 4 protein [5] |
| --- | --- | --- | --- | --- | --- | --- |
| chimeric parental 5E7 antibody (antibody, V domains shown, Chimeric antibody, murine variable domains with human constant regions; also called ch5E7; CHG1-M-1N4-5E7) VH: QVQLQQPGAELVKPGASVKLSCKASGYIFTSYWMHWVKQRPGQGLEWIGEIDPSDSYTNYNQKFKGKATLTLDKSSSTTYMQLSSLTSEDSAVYYCVRGYGNYGDYWGQGTTLTVSS VL: DVVMTQAAFSNPVTLGTSASISCRSSKSLLHSNGITYLYWYLQKPGQSPQLLIYQMSNLASGVPDRFSSSGSGTDFTLRISRVEAEDVGVYYCAQNLELPWTFGGGTKLEIKR | ~0.1 µg/mL | ~0.03 µg/mL |  |  |  |  |
| 5E7 (antibody, V domains shown) VH: QVQLQQPGAELVKPGASVKLSCKASGYIFTSYWMHWVKQRPGQGLEWIGEIDPSDSYTNYNQKFKGKATLTLDKSSSTTYMQLSSLTSEDSAVYYCVRGYGNYGDYWGQGTTLTVSSASTKGP VL: DVVMTQAAFSNPVTLGTSASISCRSSKSLLHSNGITYLYWYLQKPGQSPQLLIYQMSNLASGVPDRFSSSGSGTDFTLRISRVEAEDVGVYYCAQNLELPWTFGGGTKLEIKRTVAAP |  |  | bound | bound | lack binding | bound |
